Measurements taken from US20160045158A1, “DEVICES, SYSTEMS, AND METHODS FOR TRANSDERMAL DELIVERY OF COMPOUNDS” (PROMETHEON PHARMA, LLC, priority 2013, published 2016).

What was measured:
[1] = tested on: keratinized apical layer of the mouse cervix; details: in vivo
Source text: The P188/PG (80/20 ratio) co-polymer was then used to deliver FITC-tagged 38 amino acid cytotoxic decoy peptides.
To achieve topical delivery of decoy peptides into the entire mouse cervical T-zone, a solid FITC-tagged decoy peptide-containing co-polymer/enhancer rod was manually delivered into the endocervical canal and into one of the 2 cervical/uterine horns of a 7 month old K14E6 homozygous female transgenic mouse expressing the HPV type 16 E6 oncoprotein that synergizes with 1713-estradiol to induce low-grade dysplasia (CIN I, II) in situ that closely mimics the step-wise development of human cervical cancer; the “untreated” cervical served as an internal control.
After animals were anesthetized, a “speculum” comprised of a standard P-100 pipette tip with the tip cut off at the midpoint along its length was inserted into the vagina to expose the opening of the cervical canal. A three-fourth inch long, 24-guage catheter (Teruma Surflush; inner diameter 0.47 mm) with the trocar removed was fit onto a compatible P-10 micropipette. The catheter was loaded with the peptide-containing, liquid co-polymer/enhancer formulation to a length that approximates the entire cervical T-zone and extends across the squamo-columnar junction into the uterine horn. […]
1 mM FITC-conjugated *Br1 was used for direct visualization of peptide delivery by fluorescence microscopy. […]

[2] = tested on: EpidermFT™ (MatTek) full thickness human skin equivalent tissues; experiment: Transdermal flux/accumulation across EpidermFT full thickness human skin equivalents (Iso-Insulin ELISA of receptor fluid); format: in vitro ADME
Protocol: Proof-of-concept ex vivo studies of transdermal delivery of long-acting insulin analogues by a poloxamer 188, propylene glycol and lauracopram formulation designated TopiconDM™ were performed using metabolically active full thickness human skin equivalent (HSE) inserts from EpidermFT™ (MatTek) grown on a semi-permeable membrane that allows test compounds to pass through the tissue and accumulate in the receptor fluid on the other side. It is important to note that the term TopiconDM™ is a trademark, is not descriptive of the subject formulation, and is merely an indication of the source of the subject formulation. Thus, the use of the term TopiconDM™ herein shall not be used to affect any trademark rights associated with the term TopiconDM™.
All transdermal delivery in this model occurs exclusively by permeation across the barrier-enhanced stratum corneum. Drug permeation studies were modeled according to classic Franz cell in-sink diffusion studies. Studies were carried out for 5-7 continuous days to determine whether a 7-day TopiconDM™ basal insulin patch containing an insulin or insulin analogue is feasible. A semi-high throughput protocol was developed for the use of EpidermFT™, a barrier enhanced, mitotically and metabolically active human skin tissue model.
To determine the feasibility of creating a 7-day (weekly) TopiconDM™ insulin glargine patch, a protocol was developed in which the tissue inserts were incubated in tissue culture maintenance medium (with serum). All insulin and insulin analogues were commercially purchased and lyophilized. TopiconDM™ insulin glargine formulations were specifically adjusted to pH 4.0; all other insulin formulations were adjusted to pH ˜7 were prepared to deliver doses ranging from 0.01-50 IU in a volume of 50 microliters at 32° C. applied to the apical surface of individual 0.6 cm^2 EpidermFT™ (MatTek) full thickness human skin equivalent tissues in 6-well plates containing 2.0 ml of receptor fluid incubated at 32° C. throughout the duration of each study. It was empirically determined that 50 microliters of the formulations was sufficient to cover the entire surface of the tissue inserts when applied directly to the center. 200 microliter samples from the receptor chamber on the basal side were removed at 0.5, 1, 2, 3, 6, 8, 12, 20, 24 hours and then every 24 hours for up to 7-days; 200 microliters of fresh maintenance medium with serum was added back to receptor chamber after each sampling (closed system model). Plasma insulin and insulin analogue accumulation in mIU/cm^2 (reflecting transdermal delivery across 0.6 cm^2 tissue surface area) was quantified using the Iso-Insulin ELISA Kit (Mercodia AB, Uppsala, Sweden).
The MatTek EpidermFT™ (EFT-300) tissues are also documented to have more of the structural features of the basement membrane. […] The saturating dose for insulin glargine is 10 U/0.6 cm^2 since the flux is not increased at a dose of 20 U/0.6 cm^2. Indeed, the accumulation curves for these doses are superimposable. Results reflect ELISA measurements (Mercodia Iso-Insulin) performed in triplicate for samples at each time point.

[3] = cited from earlier work
[4] = format: in vitro ADME, human
Protocol: In human studies, the total plasma free insulin concentration reached a plateau concentration of 18.9 µIU/mL based on a well cited published study of glargine pharmacokinetics after a single subcutaneous injection in type 1 diabetic subjects over 3-24 hours (Lepore, M et al 2000, Diabetes 49:2142-2148). However, the actual steady-state plateau glargine concentration was 6.4 µIU/mL because the patients were titrated to an insulin concentration of ˜12.5 µIU/mL with a continuous lispro short-acting insulin infusion before glargine was administered. After scaling for average adult blood volume of 5 L and adjusting for known cross-reactivity of our ELISA assay with various insulin analogues (44% for glargine, 22% for detemir), a table comparing patch size and insulin dose required to achieve targets of 6.4 µIU/mL within 24 hours after administration of TopiconDM™ containing insulin glargine could be determined. […] However, it is apparent that the 10 IU/0.6 cm^2 dose of insulin glargine can achieve and maintain a target steady-state total insulin concentration of 6.4 µIU/mL with a 0.6×0.6 cm patch throughout the 5-days of the study.
The concentration of insulin glargine achieved is based on accumulation in 2.5 ml of receptor volume in the tissue model extrapolated to average adult blood volume of 5 L. […]

[5] = Plasma glargine PK in STZ-induced male CD hairless rats (type 1 DM); format: in vivo, rat; details: single 2 U subcutaneous injection
Protocol: (§1) Referring to FIG. 14, shown is a 24 Hour PK/PD study showing rapid appearance in and elimination of SC Injected Glargine from the Systemic Circulation. The red plot is the glargine concentration from pooled plasma (average±std dev of ELISA measurements). Blue plot is blood glucose (BG) concentration (average±std dev) measured by ACCU-CHEK® Aviva glucose meter. Average BG (blue line) and range (white horizontal bar) in normal CD hairless rats was determined to be ˜130 mg/dL (100-160 mg/dL) in a cohort of adult rats weighing ˜250 gm.
ELISA to quantitate the plasma glargine level was performed in triplicate on pooled blood for each time point (alternating N=2 and N=3) using the Mercodia Iso-Insulin kit. Blood samples were pooled to allow for adequate sampling of many time points over the course of 24-hour study and to reduce variability. This method has been validated for performing PK studies.
(§2) Green plot is plasma glargine concentration (average±std dev). Brown plot is blood glucose concentration (average±std dev) measured by ACCU-CHEK® Aviva glucose meter. Measurements were obtained from all individual animals (N=4) at each time point (i.e. blood samples were not pooled). ELISA to quantitate the plasma glargine level was performed in triplicate on blood samples from individual animals (N=4) at each time point using the Mercodia Iso-Insulin kit.

[6] = tested on: STZ-Induced Male CD Hairless Rat: Type 1 DM; experiment: Blood glucose PD in STZ-induced male CD hairless rats (type 1 DM); format: in vivo
Protocol: as §1
PD (Y-axis scale on right): The blood glucose (BG) and plasma glargine plots are essentially minor images of each other, consistent with an expected dramatic BG lowering effect after insulin glargine injection. The baseline mean BG of ˜375 mg/dL rapidly reached a nadir of ˜70-80 mg/dL that was persistent between 0.5-5 hours, representing asymptomatic hypoglycemia.
as §2
Referring to FIG. 16, A PD study of insulin glargine BG lowering effect comparing 1 U subcutaneous (sc) injection (gold standard) versus 5 U/1 cm^2 patch was performed. Referring to FIG. 18, the blue plot is BG concentration (average±std dev) of rats that received a single 1 U subcutaneous injection. Brown plot is BG concentration of rats that received a 5 U/1 cm^2 patch. BG measurements by ACCU-CHEK® Aviva glucose meter were obtained from all individual animals (N=4) at each time point (i.e. blood samples were not pooled). ELISA to quantitate the plasma glargine level was performed in triplicate on blood samples from individual animals (N=4) at each time point using the Mercodia Iso-Insulin kit.

ERQIKIWFQNRRMKWKKATGCLLDDGLEGLFEDID [*Br1]
penetration across keratinized apical layer of mouse cervix / cervical squamous epithelium [1]: Successful transdermal delivery

Human growth hormone (hGH): human growth hormone (22 kDa)
flux dose-response [2]: clear dose-response

insulin aspart
flux dose-response [2]: clear dose-response

insulin detemir
Cmax for adults ([3]; single 0.5 U/kg dose, patients with type 1 DM): 208 microU/mL

insulin glargine
flux dose-response [2]: clear dose-response | saturating dose (flux not increased at 20 U/0.6 cm^2) [2]: 10 U/0.6 cm^2 | size of patch required to achieve and maintain target levels [4]: under 1 cm×1 cm | return of plasma concentration to baseline level [5]: ≤ 5 h | t1/2 [5]: ~2 h | Cmax (plasma glargine) ([5]; adult rats ~250 gm): ~120 microU/mL | hypoglycemia (BG<100 mg/dL) ([6]; 1 U sc injection): rapidly became hypoglycemic | hypoglycemia (BG<100 mg/dL) ([6]; 2 U sc injection): rapidly became hypoglycemic | period during which blood glucose nadir persisted ([6]; 2 U subcutaneous injection): 0.5 to 5 h | blood glucose nadir ([6]; 2 U subcutaneous injection, baseline mean BG ~375 mg/dL): 70 to 80 mg/dL | actual steady-state plateau glargine concentration ([3]; after subtracting ~12.5 µIU/mL lispro infusion background): 6.4 µIU/mL | total plasma free insulin plateau concentration ([3]; single subcutaneous injection of glargine, type 1 diabetic subjects, over 3-24 hours (Lepore 2000)): 18.9 µIU/mL | mean plateau plasma concentration ([3]; single subcutaneous injection, patients with type 1 diabetes): ~6.4 micoU/mL

insulin glulisine
flux dose-response [2]: clear dose-response

insulin lispro
flux dose-response [2]: clear dose-response
